Experimental findings from patent publication US20180273632A1 (BIOCEROX PRODUCTS B V, published 2018) are described below.

Assay [1] has as its target T1, human CD134 (full-length, on cells) (human, UniProt P43489 29-277).
T1 construct: also called OX40; TNFRSF4
T1 sequence: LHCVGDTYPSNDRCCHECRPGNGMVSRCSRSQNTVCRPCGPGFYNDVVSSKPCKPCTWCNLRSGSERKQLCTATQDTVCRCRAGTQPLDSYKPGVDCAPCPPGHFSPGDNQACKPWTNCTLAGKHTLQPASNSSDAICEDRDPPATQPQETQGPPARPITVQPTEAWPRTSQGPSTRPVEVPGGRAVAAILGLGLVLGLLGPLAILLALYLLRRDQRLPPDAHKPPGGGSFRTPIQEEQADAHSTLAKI
The experiment in a line: flow cytometry, PHA-stimulated human T lymphocytes.

Assay [2] concerns the target T1, human CD134 (full-length, on cells). Kind of assay: flow cytometry, PHA-stimulated human T lymphocytes, two donors. The procedure: PHA-stimulated (at 10 μg/mL for 2 days; see above) human CD134 expressing T lymphocytes were generated. Cells were harvested and put at 1-2×10⁶ cells/mL in ice chilled PBS/BSA/NaN₃ supplemented with 10% HPS (blocking Fcγ receptors; BioWhittaker). […] After extensive washing in PBS/BSA/NaN₃, cells were subsequently incubated with 1:200 diluted PE-conjugated goat anti-mouse IgG antibodies (Jackson ImmunoResearch) for 30 minutes at 4° C. […] After extensive washing in PBS/BSA/NaN₃, cells were fixed in 2% formaldehyde in PBS/BSA/NaN₃ for 30 minutes at 4° C.
On the technique in general: Flow cytometry measures light scatter and fluorescence of single cells or particles in a stream.

Assay [3] shares this target. Kind of assay: flow cytometry, PHA-stimulated human CD4 positive T lymphocytes. The procedure: PHA-stimulated (at 10 μg/mL for 1 day; see above) human CD134 expressing T lymphocytes were generated. Cells were harvested and put at 1-2×10⁶ cells/mL in ice-chilled PBS/BSA/NaN3. […] After extensive washing in PBS/BSA/NaN₃, cells were subsequently incubated with 1:50 diluted FITC-conjugated mouse anti-human IgG4 antibodies (Sigma) for 30 minutes at 4° C. […] After extensive washing in PBS/BSA/NaN₃, cells were fixed in 2% formaldehyde in PBS/BSA/NaN₃ for 30 minutes at 4° C.

The target of assay [4] is T2, human fibronectin-derived control peptide (extra type III structural domain) (human).
T2 construct: Synthesized by Pepscan Presto; coated on ELISA plates at 10 ng/well; also called ED1 peptide
T2 peptide: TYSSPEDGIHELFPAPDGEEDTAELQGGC
The experiment in a line: ELISA, plate coated with 10 ng/well control peptide, HRP goat anti-mouse IgG Fcγ, n=1. The protocol: (§1) Ninety six-wells flat-bottom ELISA plates (Corning) were coated with 10 ng/well human CD134-derived peptide (synthesized by Pepscan Presto, Lelystad, The Netherlands), which corresponded to amino acid sequence of truncated CRD3 A1-module-CRD4 subdomain A1-module (see SEQ ID NO. 38) or with 10 ng/well human fibronectin-derived control peptide (synthesized by Pepscan Presto, Lelystad, The Netherlands), which corresponded to amino acid sequence of extra type III structural domain (see SEQ ID NO. 37) in PBS o/n at 4° C. After extensive washing in PBS/0.05% Tween 20, plates were blocked in PBS/0.05% Tween 20/1% BSA fraction V (Roche) for 1 hour at RT. […] After extensive washing in PBS/0.05% Tween 20, binding of antibodies was determined with 1:5000 diluted horseradish peroxidase-conjugated goat anti-mouse IgG Fcγ-specific antibodies (Jackson ImmunoResearch) for 1 hour at RT, followed by a ready-to-use solution of TMB substrate (lnvitrogen) for colorimetric detection. After adding 1 M H₂SO₄, optical densities was measured at a wavelength of 450 nm (reference wavelength of 655 nm) using a microplate reader (BioRad).
On the technique in general: ELISA stands for enzyme-linked immunosorbent assay.

Assay [5] concerns the target T3, human CD134-derived peptide (truncated CRD3 A1-module-CRD4 subdomain A1-module, amino acids 108-146) (human).
T3 construct: Synthesized by Pepscan Presto; coated on ELISA plates at 10 ng/well
T3 peptide: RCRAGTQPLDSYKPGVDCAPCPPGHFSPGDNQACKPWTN
Kind of assay: ELISA, plate coated with 10 ng/well huCD134 peptide, HRP goat anti-mouse IgG Fcγ, n=1. The protocol: as §1

Assay [6] deals with T4, 'truncated (tc) CRD4' construct of human CD134 (amino acids 147-277 linked to signal peptide amino acids 1-28) (human, UniProt P43489 147-277).
T4 construct: also called truncated CRD4
T4 sequence: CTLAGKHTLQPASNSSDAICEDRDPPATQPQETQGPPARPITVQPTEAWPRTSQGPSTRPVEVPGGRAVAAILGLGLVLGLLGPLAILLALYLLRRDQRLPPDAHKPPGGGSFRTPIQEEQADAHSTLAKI
Kind of assay: flow cytometry on 293-F cells transiently transfected with the construct, PE goat anti-mouse IgG (Fcγ) [cont.]. The protocol:
After 48-72 h, surface human CD134 expression on transfected cells was analyzed by FACS analysis. To this end, transfected cells were harvested and put at 1-2×10⁶ cells/mL in ice-chilled PBS/BSA/NaN₃. […] After extensive washing in PBS/BSA/NaN₃, cells were subsequently incubated with 1:200 diluted PE-conjugated goat anti-mouse IgG (Fcγ specific) antibodies (Jackson ImmunoResearch) for 30 minutes at 4° C. After extensive washing in PBS/BSA/NaN₃, cells were fixed in 2% formaldehyde in PBS/BSA/NaN₃ for 30 minutes at 4° C.

Assay [7] has as its target T2, human fibronectin-derived control …. Kind of assay: ELISA, plate coated with 10 ng/well control peptide, HRP goat anti-human IgG Fcγ, n=1. The protocol:
as §1, with “anti-human” for “anti-mouse”, “(invitrogen)” for “(lnvitrogen)”

Assay [8] deals with T3, human CD134-derived peptide (truncated …). Kind of assay: ELISA, plate coated with 10 ng/well huCD134 peptide, HRP goat anti-human IgG Fcγ, n=1. The procedure: as §1, with “anti-human” for “anti-mouse”, “(invitrogen)” for “(lnvitrogen)”
The target in assay [9] is T4, 'truncated (tc) CRD4' construct of …. The experiment in a line: flow cytometry on 293-F cells transiently transfected with the construct, PE goat anti-human IgG (Fcγ) [cont.]. The protocol:
After 48-72 h, surface human CD134 expression on transfected cells was analyzed by FACS analysis. To this end, transfected cells were harvested and put at 1-2×10⁶ cells/mL in ice-chilled PBS/BSA/NaN3. […] After extensive washing in PBS/BSA/NaN₃, cells were subsequently incubated with 1:200 diluted PE-conjugated goat anti-human IgG (Fcγ specific) antibodies (Jackson ImmunoResearch) for 30 minutes at 4° C. After extensive washing in PBS/BSA/NaN₃, cells were fixed in 2% formaldehyde in PBS/BSA/NaN₃ for 30 minutes at 4° C.

What is called EC50 is the midpoint of the concentration-response curve. Read a high EC50 as a less potent agent. In assay [1], “commercially available mouse anti-human CD134 antibody clone ACT35 (BD Biosciences)” gave a saturating concentration of 5 µg/mL. In addition, the EC50 in [2] was found to be 2.5 µg/mL.

B1: mouse anti-human CD134 monoclonal antibody clone 20E5 (antibody, mouse IgG1, V domains shown)
VH: EVQLQQSGPELVKPGASVKMSCKASGYTFTSYVMHWVKQKPGQGLEWIGYINPYNDGTKYNEKFKGKATLTSDKSSSTAYMELSSLTSEDSAVYYCANYYGSSLSMDYWGQGTSVTVSS
VL: DIQMTQTTSSLSASLGDRVTISCRASQDISNYLNWYQQKPDGTVKLLIYYTSRLHSGVPSRFSGSGSGTDYSLTISNLEQEDIATYFCQQGNTLPWTFGGGTKLEIKR
notes: also called m20E5
Regarding B1, it took 2.5 µg/mL to reach a half-maximal effect in assay [2] (EC50).

B2: chimeric human IgG4κ anti-human CD134 antibody clone 20E5 (antibody, V domains shown)
VH: EVQLQQSGPELVKPGASVKMSCKASGYTFTSYVMHWVKQKPGQGLEWIGYINPYNDGTKYNEKFKGKATLTSDKSSSTAYMELSSLTSEDSAVYYCANYYGSSLSMDYWGQGTSVTVSS
VL: DIQMTQTTSSLSASLGDRVTISCRASQDISNYLNWYQQKPDGTVKLLIYYTSRLHSGVPSRFSGSGSGTDYSLTISNLEQEDIATYFCQQGNTLPWTFGGGTKLEIKR
notes: also called hu20E5
B2 had an EC50 in assay [3] of approximately 1 µg/mL.

B3: mouse anti-human CD134 monoclonal antibody clone 12H3 (antibody, mouse IgG1, V domains shown)
VH: EVQLQQSGPELVKPGASVKISCKTSGYTFKDYTMHWVKQSHGKSLEWIGGIYPNNGGSTYNQNFKDKATLTVDKSSSTAYMEFRSLTSEDSAVYYCARMGYHGPHLDFDVWGAGTTVTVSP
VL: DIVMTQSHKFMSTSLGDRVSITCKASQDVGAAVAWYQQKPGQSPKLLIYWASTRHTGVPDRFTGGGSGTDFTLTISNVQSEDLTDYFCQQYINYPLTFGGGTKLEIKR
notes: also called m12H3
Consider B3, for which the binding result in [4] is given as “no binding (tested: 50 µg/mL)”; in [5] it was “binds”; in [6], “no binding (tested: 20.0 µg/mL)”. For the same molecule, the half-maximal effective concentration (EC50) in [2] stood at 0.5 µg/mL.

B4: chimeric human IgG4κ anti-human CD134 monoclonal antibody clone 12H3 (antibody, V domains shown)
VH: EVQLQQSGPELVKPGASVKISCKTSGYTFKDYTMHWVKQSHGKSLEWIGGIYPNNGGSTYNQNFKDKATLTVDKSSSTAYMEFRSLTSEDSAVYYCARMGYHGPHLDFDVWGAGTTVTVSP
VL: DIVMTQSHKFMSTSLGDRVSITCKASQDVGAAVAWYQQKPGQSPKLLIYWASTRHTGVPDRFTGGGSGTDFTLTISNVQSEDLTDYFCQQYINYPLTFGGGTKLEIKR
In the case of B4, the figures for the binding result in assay [7], in assay [8] and in assay [9] were “no binding (tested: 50 µg/mL)”, “binds” and “no binding (tested: 20.0 µg/mL)”, respectively.
